From patent US20200199241A1 (Chugai, published 2020)
Residue numbers refer to the chain shown, from its start. Numbers in names are those of the source. Read-outs that look alike come from different tables or passages of the source.

Columns and labels:
human FcγRIIb [1] = target: T1, human FcγRIIb (human, UniProt P31994 43-217, limits assumed); experiment: SPR (Biacore), antibody captured, FcγR as analyte
T1 construct: also called FcγIIB
T1 sequence: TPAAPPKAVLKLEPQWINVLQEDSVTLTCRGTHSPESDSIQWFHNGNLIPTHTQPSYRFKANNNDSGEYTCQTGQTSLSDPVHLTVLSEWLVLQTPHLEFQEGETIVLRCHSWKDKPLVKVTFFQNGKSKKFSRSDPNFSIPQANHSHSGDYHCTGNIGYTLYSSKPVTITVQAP

human FcγRIIb [2] = target: T1, human FcγRIIb; experiment: SPR (Biacore); ratio against IgG1
human FcγRIIb [3] = target: T1, human FcγRIIb; experiment: SPR (Biacore), antibody captured, FcγR as analyte; remark: listed apart in the source
human FcγRIIb [4] = target: T1, human FcγRIIb; experiment: SPR (Biacore); ratio against IgG1; remark: listed apart in the source
[5] = target: T2, human FcRn (soluble human FcRn complexed with β2-microglobulin) (human, UniProt P61769 21-119, limits assumed); experiment: SPR, antibody captured by Protein L, human FcRn as analyte, pH 7.0, 25 C
T2 construct: also called hFcRn
T2 sequence (chain, as listed by the source limits assumed, chain 1 of 2): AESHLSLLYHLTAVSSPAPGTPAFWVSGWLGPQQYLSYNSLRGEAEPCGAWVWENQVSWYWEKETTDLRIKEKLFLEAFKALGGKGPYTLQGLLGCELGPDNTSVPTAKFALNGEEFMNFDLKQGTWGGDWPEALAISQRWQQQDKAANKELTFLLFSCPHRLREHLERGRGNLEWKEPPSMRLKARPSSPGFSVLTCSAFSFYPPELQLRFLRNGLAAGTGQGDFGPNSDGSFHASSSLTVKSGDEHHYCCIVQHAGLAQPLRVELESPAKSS
T2 sequence (P61769 21-119 limits assumed, chain 2 of 2): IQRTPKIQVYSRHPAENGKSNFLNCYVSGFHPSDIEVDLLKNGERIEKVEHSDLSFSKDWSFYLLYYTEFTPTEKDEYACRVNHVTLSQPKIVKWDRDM

mouse FcγRIIb [6] = target: T3, mouse FcγRIIb (mouse, UniProt P08101 30-207, limits assumed); experiment: SPR, antibody captured by Protein L, mouse FcγR as analyte, pH 7.4, 25 C
T3 construct: bought; also called mFcgRIIb; mFcgR IIb
T3 sequence (looked up): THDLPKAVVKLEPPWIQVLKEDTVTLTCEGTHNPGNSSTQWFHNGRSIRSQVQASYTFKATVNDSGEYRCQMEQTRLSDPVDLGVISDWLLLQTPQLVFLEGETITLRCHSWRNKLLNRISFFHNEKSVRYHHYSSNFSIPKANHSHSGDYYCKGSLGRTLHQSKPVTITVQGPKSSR

mouse FcγRIV [7] = target: T4, mouse FcγRIV (mouse, UniProt A0A0B4J1G0 21-203); experiment: as above
T4 construct: bought; also called mFcgRIV; mFcgR IV; the vendor's purification tag not given
T4 sequence: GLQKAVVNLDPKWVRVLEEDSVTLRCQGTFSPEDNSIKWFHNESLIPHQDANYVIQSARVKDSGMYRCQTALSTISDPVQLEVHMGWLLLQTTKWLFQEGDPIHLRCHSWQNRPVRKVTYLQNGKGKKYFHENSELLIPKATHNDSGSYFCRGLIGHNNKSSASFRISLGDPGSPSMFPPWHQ

mouse FcγRI = target: T5, mouse FcγRI (mouse, UniProt P26151 25-297); experiment: as above
T5 construct: bought; also called mFcgRI; mFcgR 1
T5 sequence (looked up): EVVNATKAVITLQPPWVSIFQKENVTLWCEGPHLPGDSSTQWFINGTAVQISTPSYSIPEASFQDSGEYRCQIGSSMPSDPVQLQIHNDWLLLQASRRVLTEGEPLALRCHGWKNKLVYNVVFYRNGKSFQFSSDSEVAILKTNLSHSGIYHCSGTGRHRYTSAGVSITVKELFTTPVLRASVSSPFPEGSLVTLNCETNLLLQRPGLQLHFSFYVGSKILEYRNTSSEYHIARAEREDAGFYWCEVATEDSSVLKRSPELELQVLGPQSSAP

mouse FcγRIIb [8] = target: T3, mouse FcγRIIb; experiment: as above; remark: listed apart in the source
mouse FcγRIV [9] = target: T4, mouse FcγRIV; experiment: as above; remark: listed apart in the source
mouse FcγRIII = target: T6, mouse FcγRIII (mouse, UniProt P08508 31-215); experiment: as above
T6 construct: bought; also called mFcgRIII; mFcgR III
T6 sequence (looked up): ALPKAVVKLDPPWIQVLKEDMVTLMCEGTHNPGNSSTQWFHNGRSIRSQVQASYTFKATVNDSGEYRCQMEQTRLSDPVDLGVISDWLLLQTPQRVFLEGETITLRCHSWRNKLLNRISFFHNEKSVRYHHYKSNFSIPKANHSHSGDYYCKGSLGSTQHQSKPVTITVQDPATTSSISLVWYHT

human FcγRIIb [10] = target: T7, human FcγRIIb (human, UniProt P31994 43-217, limits assumed); experiment: SPR, antibody captured by Protein L, human FcγR as analyte, pH 7.4, 25 C;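 further: biacore T100 or T200 with Protein L amine-coupled on a CM4 chip, FcγRs diluted in ACES saline with polysorbate 20, buffer-only injection as blank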
T7 construct: also called hFcgRIIb; FcγIIB
T7 sequence: T1 sequence

human FcγRIIa(R) = target: T8, human FcγRIIa(R) (human, UniProt P12318 36-217); experiment: as above
T8 construct: also called hFcgRIIa(R); FcγRIIa type R
T8 chain: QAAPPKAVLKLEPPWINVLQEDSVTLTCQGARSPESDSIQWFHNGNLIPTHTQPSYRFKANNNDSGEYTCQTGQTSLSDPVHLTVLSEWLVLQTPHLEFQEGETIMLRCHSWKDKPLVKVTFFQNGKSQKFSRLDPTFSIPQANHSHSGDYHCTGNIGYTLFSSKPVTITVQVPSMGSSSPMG

human FcγRIIIa(V) = target: T9, human FcγRIIIa(V) (human, UniProt P08637 17-208, limits assumed); experiment: as above
T9 construct: also called hFcgRIIIa(V); allotype V158
T9 sequence (P08637 other isoform, or with tags, fused parts or gaps limits assumed): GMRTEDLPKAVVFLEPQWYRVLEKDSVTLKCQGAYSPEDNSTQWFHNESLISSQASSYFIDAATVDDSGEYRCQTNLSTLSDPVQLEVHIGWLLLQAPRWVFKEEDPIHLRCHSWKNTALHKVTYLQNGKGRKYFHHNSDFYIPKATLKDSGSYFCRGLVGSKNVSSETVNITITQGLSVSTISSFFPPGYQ

human FcγRIIa(H) = target: T10, human FcγRIIa(H) (human, UniProt P12318 36-217); experiment: as above
T10 construct: also called hFcgRIIa(H); FcγRIIa type H
T10 sequence: T8 chain with R133H

human FcγRIa = target: T11, human FcγRIa (human, UniProt P12314 16-292, limits assumed); experiment: as above
T11 construct: also called hFcgRIa; hFcgRI
T11 sequence (P12314 16-292 limits assumed): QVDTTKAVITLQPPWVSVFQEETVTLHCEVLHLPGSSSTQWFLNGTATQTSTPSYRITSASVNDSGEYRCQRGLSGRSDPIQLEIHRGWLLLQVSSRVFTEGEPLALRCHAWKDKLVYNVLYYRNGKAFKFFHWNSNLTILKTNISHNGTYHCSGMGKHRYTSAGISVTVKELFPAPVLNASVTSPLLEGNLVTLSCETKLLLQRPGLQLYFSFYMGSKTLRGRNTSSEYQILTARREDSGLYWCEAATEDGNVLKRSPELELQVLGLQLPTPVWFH

[11] = target: T2, human FcRn (soluble human FcRn …); experiment: SPR, antibody captured by Protein L, human FcRn as analyte, pH 7.0, 25 C; remark: listed apart in the source
[12] = target: T2, human FcRn (soluble human FcRn …); experiment: as above; remark: listed apart in the source

B1: IgG1-v1 (antibody)
heavy: not shown
light: DIQMTQSPSSLSASVGDRVTITCRASQDISSYLNWYQQKPGKAPKLLIYYTSRLHSGVPSRFSGSGSGTDFTFTISSLQPEDIATYYCQQGNTLPYTFGQGTKVEIK
notes: IL6R-G1d with P238D (EU numbering); also called IL6R-G1d-v1
Kd (human FcγRIIb [1]): 1100 nM | relative KD for FcγRIIb (KD for IgG1/KD for each variant) (human FcγRIIb [2]): 4.8 | Kd (human FcγRIIb [3]): 1100 nM | relative KD for FcγRIIb (KD for IgG1/KD for each variant) (human FcγRIIb [4]): 4.8

B2: IgG1-v5 (antibody)
heavy: QVQLQESGPGLVKPSETLSLTCAVSGHSISHDHAWSWVRQPPGEGLEWIGFISYSGITNYNPSLQGRVTISRDNSKNTLYLQMNSLRAEDTAVYYCARSLARTTAMDYWGEGTLVTVSSASTKGPSVFPLAPSSKSTSGGTAALGCLVKDYFPEPVTVSWNSGALTSGVHTFPAVLQSSGLYSLSSVVTVPSSSLGTQTYICNVNHKPSNTKVDKKVEPKSCDKTHTCPPCPAPELLGGDSVFLFPPKPKDTLMISRTPEVTCVVVDVEHEDPEVKFNWYVDGVEVHNAKTKPREEQYNSTYRVVSVLTVLHQDWLNGKEYKCKVSNKAFPAPIEKTISKAKGQPREPQVYTLPPSRDELTKNQVSLTCLVKGFYPSDIAVEWESNGQPENNYKTTPPVLDSDGSFFLYSKLTVDKSRWQQGNVFSCSVMHEALHNHYTQKSLSLSP
light: B1 light
notes: IL6R-G1d with P238D/S267E/L328F (EU numbering); The L chain is not restated for v5; also called IL6R-G1d-v5; P238D/S267E/L328F
Kd (human FcγRIIb [1]): 450 nM | relative KD for FcγRIIb (KD for IgG1/KD for each variant) (human FcγRIIb [2]): 12

B3: IgG1-v4 (antibody)
heavy: not shown
light: B1 light
notes: IL6R-G1d with P238D/L328E (EU numbering); also called IL6R-G1d-v4; P238D/L328E
Kd (human FcγRIIb [3]): 11000 nM | relative KD for FcγRIIb (KD for IgG1/KD for each variant) (human FcγRIIb [4]): 0.47

B4: IgG1-v3 (antibody)
heavy: not shown
light: B1 light
notes: IL6R-G1d with S267E/L328F (EU numbering); also called S267E/L328F
Kd (human FcγRIIb [1]): 13 nM | relative KD for FcγRIIb (KD for IgG1/KD for each variant) (human FcγRIIb [2]): 408

B5: IgG1-v2 (antibody)
heavy: not shown
light: B1 light
notes: IL6R-G1d with L328E (EU numbering); also called L328E
Kd (human FcγRIIb [3]): 2300 nM | relative KD for FcγRIIb (KD for IgG1/KD for each variant) (human FcγRIIb [4]): 2.3

B6: antibody with VH3-IgG1-F424 heavy chain and L(WT)-CK light chain (antibody)
heavy: B2 heavy with D240P, S241K, P259A, E269S, V310P, F330L, M430L, N436Y
light: not shown
notes: S239K/P257A/V308P/M428L/N434Y; copies: 2 + 2
Kd [5]: 94 nM | BINDING AMOUNT (RU) (mouse FcγRIIb [6]): -2.5 RU | BINDING AMOUNT (RU) (mouse FcγRIV [7]): 138 RU

B7: antibody with VH3-IgG1-F1009 heavy chain and L(WT)-CK light chain (antibody)
heavy: QVQLQESGPGLVKPSETLSLTCAVSGHSISHDHAWSWVRQPPGEGLEWIGFISYSGITNYNPSLQGRVTISRDNSKNTLYLQMNSLRAEDTAVYYCARSLARTTAMDYWGEGTLVTVSSASTKGPSVFPLAPSSKSTSGGTAALGCLVKDYFPEPVTVSWNSGALTSGVHTFPAVLQSSGLYSLSSVVTVPSSSLGTQTYICNVNHKPSNTKVDKKVEPKSCDKTHTCPPCPAPELRGGPKVFLFPPKPKDVLYISRTPEVTCVVVDVSHEDPEVKFNWYVDGVEVHNAKTKPREEQYNSTYRVVSVLQPLHADWLNGKEYKCKVSNKALPAPIEKTISKAKGQPREPQVYTLPPSRDELTKNQVSLTCLVKGFYPSDIAVEWESNGQPENNYKTTPPVLDSDGSFFLYSKLTVDKSRWQQGNVFSCSVMHEALHYHVTQKSLSLSP
light: not shown
notes: L235R/S239K/T250V/M252Y/T307Q/V308P/Q311A/N434Y/Y436V; copies: 2 + 2
BINDING AMOUNT (RU) (mouse FcγRI): 0.6 RU | BINDING AMOUNT (RU) (mouse FcγRIIb [8]): -1.5 RU | BINDING AMOUNT (RU) (mouse FcγRIV [9]): 7.2 RU | BINDING AMOUNT (RU) (mouse FcγRIII): -12.9 RU | BINDING AMOUNT (RU) (human FcγRIIb [10]): 0.16 RU | BINDING AMOUNT (RU) (human FcγRIIa(R)): -0.27 RU | BINDING AMOUNT (RU) (human FcγRIIIa(V)): 3.64 RU | BINDING AMOUNT (RU) (human FcγRIIa(H)): -0.02 RU | BINDING AMOUNT (RU) (human FcγRIa): 0.31 RU | Kd [11]: 12 nM | Kd [12]: 12 nM

B8: antibody with VH3-IgG1-F1327 heavy chain and L(WT)-CK light chain (antibody)
heavy: B7 heavy with L236A, R237A, K241S, N299A
light: not shown
notes: L234A/L235A/N297A on VH3-IgG1-F947; copies: 2 + 2
BINDING AMOUNT (RU) (human FcγRIIb [10]): 0.74 RU | BINDING AMOUNT (RU) (human FcγRIIa(R)): -0.2 RU | BINDING AMOUNT (RU) (human FcγRIIIa(V)): -0.6 RU | BINDING AMOUNT (RU) (human FcγRIIa(H)): -1.14 RU | BINDING AMOUNT (RU) (human FcγRIa): 0.87 RU | Kd [12]: 14 nM
